# Laboratory results reported in patent US7067277B1, “Chimeric G proteins and uses thereof” (H. Lundbeck A/S, priority 1999, dated 2006).
# T1: h GALR1 (Homo sapiens, UniProt P47211)
# T1 construct: expressed in transfected cells; host or cells: COS-7
# T1 sequence (P47211 1-349): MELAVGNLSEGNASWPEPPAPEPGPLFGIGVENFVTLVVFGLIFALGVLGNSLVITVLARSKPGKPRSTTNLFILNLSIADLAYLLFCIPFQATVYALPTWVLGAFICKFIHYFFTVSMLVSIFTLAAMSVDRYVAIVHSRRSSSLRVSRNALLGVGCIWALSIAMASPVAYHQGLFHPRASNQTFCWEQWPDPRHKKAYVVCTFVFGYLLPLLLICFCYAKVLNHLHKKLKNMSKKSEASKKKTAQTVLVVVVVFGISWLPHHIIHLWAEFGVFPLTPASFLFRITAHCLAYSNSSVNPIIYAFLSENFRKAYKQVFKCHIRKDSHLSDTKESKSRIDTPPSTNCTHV
# T2: h GALR3 (Homo sapiens, UniProt O60755)
# T2 sequence (O60755 1-368): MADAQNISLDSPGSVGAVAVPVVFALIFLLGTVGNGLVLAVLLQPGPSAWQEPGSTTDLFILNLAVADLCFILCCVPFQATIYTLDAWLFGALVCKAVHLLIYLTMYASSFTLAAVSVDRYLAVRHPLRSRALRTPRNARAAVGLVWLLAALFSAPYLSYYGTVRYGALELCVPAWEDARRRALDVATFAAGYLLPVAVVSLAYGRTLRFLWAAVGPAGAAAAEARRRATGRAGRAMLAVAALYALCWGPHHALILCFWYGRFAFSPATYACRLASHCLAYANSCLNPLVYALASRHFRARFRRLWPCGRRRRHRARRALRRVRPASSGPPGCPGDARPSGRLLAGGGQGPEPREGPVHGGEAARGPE
# T3: r GALR1 (Rattus norvegicus, UniProt Q62805)
# T3 sequence (Q62805 1-346): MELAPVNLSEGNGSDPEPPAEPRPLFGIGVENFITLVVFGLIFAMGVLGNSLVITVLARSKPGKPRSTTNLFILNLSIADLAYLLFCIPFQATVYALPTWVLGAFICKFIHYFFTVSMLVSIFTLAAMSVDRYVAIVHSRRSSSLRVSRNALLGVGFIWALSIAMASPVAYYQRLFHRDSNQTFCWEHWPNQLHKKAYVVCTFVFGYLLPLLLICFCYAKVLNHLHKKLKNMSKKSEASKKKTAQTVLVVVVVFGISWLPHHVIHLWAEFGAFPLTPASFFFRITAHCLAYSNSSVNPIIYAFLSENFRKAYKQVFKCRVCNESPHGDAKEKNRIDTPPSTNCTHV
# What was measured:
# Assay in all cases: Calcium mobilization (FLIPR, Fluo-3) in transfected COS-7 cells
# Assay type in all cases: cell-based
# h GLP-1 = h GLP-1 (Homo sapiens, UniProt P43220); conditions: h GLP-1 + chimera in COS-7; agonist GLP-1, max 10 μM
# How it was run: (§1)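 First, COS-7 cells receive GPCR and chimeric G protein cDNA by DEAE-dextran transfection. Agonist responses are finally recorded by FLIPR for 3 min at room temperature.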
# h kappa = target: T4, h kappa (Homo sapiens, UniProt P41145); conditions: h kappa + chimera in COS-7; agonist U-69593, max 100 μM
# T4 construct: expressed in transfected cells; host or cells: COS-7
# How it was run: as §1
# h 5HT4 = h 5HT4 (Homo sapiens, UniProt Q13639); conditions: h 5HT4 + chimera in COS-7; agonist 5HT, max 100 μM
# How it was run: as §1
# h GALR1 = target: T1, h GALR1; conditions: h GALR1 + chimera in COS-7; agonist GAL, max 10 μM
# How it was run: as §1
# h GALR3 = target: T2, h GALR3; conditions: h GALR3 + chimera in COS-7; agonist GAL, max 10 μM
# How it was run: as §1
# r GALR1 = target: T3, r GALR1; conditions: r GALR1 + chimera in COS-7; agonist GAL, max 10 μM
# How it was run: as §1
# h NPFF1 = target: T5, h NPFF1 (Homo sapiens, UniProt Q9GZQ6); conditions: h NPFF1 + chimera in COS-7; agonist NPFF, max 10 μM
# T5 construct: expressed in transfected cells; host or cells: COS-7
# How it was run: as §1
# m 5HT5A = m 5HT5A (Mus musculus, UniProt P30966); conditions: m 5HT5A + chimera in COS-7; agonist 5HT, max 100 μM
# How it was run: as §1
# m 5HT5B = m 5HT5B (Mus musculus, UniProt P31387); conditions: m 5HT5B + chimera in COS-7; agonist 5HT, max 100 μM
# How it was run: as §1
# h 5HT4, sequence (Q13639 whole entry): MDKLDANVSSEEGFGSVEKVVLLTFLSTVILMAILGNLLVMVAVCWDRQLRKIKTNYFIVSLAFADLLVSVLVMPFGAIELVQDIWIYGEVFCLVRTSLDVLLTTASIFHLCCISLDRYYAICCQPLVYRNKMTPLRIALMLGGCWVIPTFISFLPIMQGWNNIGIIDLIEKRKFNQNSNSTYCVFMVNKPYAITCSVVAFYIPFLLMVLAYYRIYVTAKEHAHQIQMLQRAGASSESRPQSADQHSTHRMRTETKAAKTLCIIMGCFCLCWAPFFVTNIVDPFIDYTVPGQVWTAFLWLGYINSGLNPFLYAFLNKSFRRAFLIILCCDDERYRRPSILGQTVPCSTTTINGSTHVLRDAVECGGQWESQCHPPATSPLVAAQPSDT
# h GLP-1, sequence (P43220 24-463): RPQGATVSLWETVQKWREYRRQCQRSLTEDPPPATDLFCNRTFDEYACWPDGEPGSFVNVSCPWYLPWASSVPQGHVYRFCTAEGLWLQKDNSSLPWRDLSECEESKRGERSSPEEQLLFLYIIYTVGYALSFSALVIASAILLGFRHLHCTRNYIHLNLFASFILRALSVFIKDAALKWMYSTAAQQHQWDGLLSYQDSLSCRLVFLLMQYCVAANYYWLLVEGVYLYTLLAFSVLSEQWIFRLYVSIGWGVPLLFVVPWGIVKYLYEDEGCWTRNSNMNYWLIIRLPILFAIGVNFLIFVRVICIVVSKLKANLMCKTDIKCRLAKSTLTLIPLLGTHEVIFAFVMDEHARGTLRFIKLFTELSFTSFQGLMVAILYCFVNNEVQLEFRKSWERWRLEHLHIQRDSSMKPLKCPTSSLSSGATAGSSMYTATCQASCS
# T4 sequence (P41145 whole entry): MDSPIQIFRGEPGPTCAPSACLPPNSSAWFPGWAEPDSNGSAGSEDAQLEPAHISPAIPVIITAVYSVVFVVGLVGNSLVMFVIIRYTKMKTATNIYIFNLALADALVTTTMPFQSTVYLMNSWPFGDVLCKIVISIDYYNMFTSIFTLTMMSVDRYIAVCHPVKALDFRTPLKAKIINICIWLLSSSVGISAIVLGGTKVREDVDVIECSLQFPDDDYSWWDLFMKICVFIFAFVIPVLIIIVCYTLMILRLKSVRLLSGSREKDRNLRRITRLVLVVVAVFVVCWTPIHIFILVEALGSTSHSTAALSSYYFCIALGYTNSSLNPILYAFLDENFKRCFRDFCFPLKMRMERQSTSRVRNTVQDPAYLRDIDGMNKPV
# m 5HT5B, sequence (P31387 whole entry): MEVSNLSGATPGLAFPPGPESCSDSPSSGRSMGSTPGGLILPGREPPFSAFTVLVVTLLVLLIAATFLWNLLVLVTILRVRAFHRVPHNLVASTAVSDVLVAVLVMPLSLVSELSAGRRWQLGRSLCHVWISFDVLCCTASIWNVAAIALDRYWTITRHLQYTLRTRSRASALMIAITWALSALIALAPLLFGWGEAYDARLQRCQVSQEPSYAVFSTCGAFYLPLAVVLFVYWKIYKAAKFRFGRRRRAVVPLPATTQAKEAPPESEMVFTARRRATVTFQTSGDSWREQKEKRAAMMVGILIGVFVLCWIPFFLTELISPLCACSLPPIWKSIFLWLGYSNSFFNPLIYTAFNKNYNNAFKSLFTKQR
# m 5HT5A, sequence (P30966 whole entry): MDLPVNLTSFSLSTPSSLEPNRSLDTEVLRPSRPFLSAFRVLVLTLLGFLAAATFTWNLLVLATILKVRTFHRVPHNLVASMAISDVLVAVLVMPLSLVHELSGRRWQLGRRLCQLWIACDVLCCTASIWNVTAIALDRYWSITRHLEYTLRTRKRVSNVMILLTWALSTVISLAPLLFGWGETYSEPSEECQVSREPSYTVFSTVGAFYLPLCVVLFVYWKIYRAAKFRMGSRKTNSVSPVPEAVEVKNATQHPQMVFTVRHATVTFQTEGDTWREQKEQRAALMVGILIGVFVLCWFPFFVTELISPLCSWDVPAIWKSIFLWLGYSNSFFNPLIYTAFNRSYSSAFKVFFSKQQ
# T5 sequence (Q9GZQ6 whole entry): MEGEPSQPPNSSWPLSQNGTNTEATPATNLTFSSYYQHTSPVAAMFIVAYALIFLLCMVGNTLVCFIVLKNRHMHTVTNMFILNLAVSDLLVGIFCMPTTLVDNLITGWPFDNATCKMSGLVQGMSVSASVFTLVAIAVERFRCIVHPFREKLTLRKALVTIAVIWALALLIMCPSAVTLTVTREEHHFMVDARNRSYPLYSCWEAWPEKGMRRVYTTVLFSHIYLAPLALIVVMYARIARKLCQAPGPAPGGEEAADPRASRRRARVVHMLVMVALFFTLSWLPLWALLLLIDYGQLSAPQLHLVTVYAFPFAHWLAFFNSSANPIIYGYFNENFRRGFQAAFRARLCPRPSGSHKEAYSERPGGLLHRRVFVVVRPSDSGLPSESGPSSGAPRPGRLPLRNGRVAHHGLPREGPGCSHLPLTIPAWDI
Molecule,MAXIMAL SIGNAL (FLUORESCENCE UNITS) (h GLP-1) [fluorescence units],MAXIMAL SIGNAL (FLUORESCENCE UNITS) (h kappa) [fluorescence units],MAXIMAL SIGNAL (FLUORESCENCE UNITS) (h 5HT4) [fluorescence units],MAXIMAL SIGNAL (FLUORESCENCE UNITS) (h GALR1) [fluorescence units],MAXIMAL SIGNAL (FLUORESCENCE UNITS) (h GALR3) [fluorescence units],MAXIMAL SIGNAL (FLUORESCENCE UNITS) (r GALR1) [fluorescence units],MAXIMAL SIGNAL (FLUORESCENCE UNITS) (h NPFF1) [fluorescence units],MAXIMAL SIGNAL (FLUORESCENCE UNITS) (m 5HT5A) [fluorescence units],MAXIMAL SIGNAL (FLUORESCENCE UNITS) (m 5HT5B) [fluorescence units]
"cGαq/z5: chimeric Gα subunit: C-terminal final 5 amino acids of C. elegans Gαq replaced with those of hGαz (SEQ ID NO: 1) (protein, C. elegans) MACCLSEEAREQKRINQEIEKQLQRDKRNARRELKLLLLGTGESGKSTFIKQMRIIHGQGYSEEDKRAHIRLVYQNVFMAIQSMIRAMDTLDIKFGNESEELQEKAAVVREVDFESVTSFEEPYVSYIKELWEDSGIQECYDRRREYQLTDSAKYYLSDLRRLAVPDYLPTEQDILRVRVPTTGIIEYPFDLEQIIFRMVDVGGQRSERRKWIHCFENVTSIMFLVALSEYDQVLVECDNENRMEESKALFRTIITYPWFTNSSVILFLNKKDLLEEKILYSHLADYFPEYDGPPRDPIAAREFILKMFVDLNPDADKIIYSHFTCATDTENIRFVFAAVKDTILQHNLKYIGLC",131,5975,1011,7648,1523,3086,6593,351,265
"cGαq/z9: C. elegans Gαq with Gαz portion of the C-terminal tail extended to 9 amino acids (SEQ ID NO: 2) (protein, C. elegans) MACCLSEEAREQKRINQEIEKQLQRDKRNARRELKLLLLGTGESGKSTFIKQMRIIHGQGYSEEDKRAHIRLVYQNVFMAIQSMIRAMDTLDIKFGNESEELQEKAAVVREVDFESVTSFEEPYVSYIKELWEDSGIQECYDRRREYQLTDSAKYYLSDLRRLAVPDYLPTEQDILRVRVPTTGIIEYPFDLEQIIFRMVDVGGQRSERRKWIHCFENVTSIMFLVALSEYDQVLVECDNENRMEESKALFRTIITYPWFTNSSVILFLNKKDLLEEKILYSHLADYFPEYDGPPRDPIAAREFILKMFVDLNPDADKIIYSHFTCATDTENIRFVFAAVKDTILQNNLKYIGLC",135,3472,1696,8489,2050,5947,2966,270,443
